Measured values published in patent US20220056119A1 (Regeneron, published 2022).

T1: Activin A (R&D Systems, #338-AC) (human, UniProt P08476 311-426)
T1 construct: Bought protein; also called inhibin-βA dimer; homodimer of two βA subunits
T1 sequence: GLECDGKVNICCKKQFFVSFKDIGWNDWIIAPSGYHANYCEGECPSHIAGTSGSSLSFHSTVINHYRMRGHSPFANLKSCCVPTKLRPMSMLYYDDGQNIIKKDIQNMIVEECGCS

T2: Activin A (human, UniProt P08476 311-426)
T2 construct: Homodimer of two betaA subunits; bought (R&D Systems #338-AC); also called inhibin-betaA dimer
T2 sequence: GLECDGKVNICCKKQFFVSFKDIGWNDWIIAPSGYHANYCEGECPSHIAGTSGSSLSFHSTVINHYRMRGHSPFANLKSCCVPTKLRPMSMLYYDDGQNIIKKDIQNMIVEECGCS

T3: Activin AC (human, UniProt P55103 237-352)
T3 sequence 1: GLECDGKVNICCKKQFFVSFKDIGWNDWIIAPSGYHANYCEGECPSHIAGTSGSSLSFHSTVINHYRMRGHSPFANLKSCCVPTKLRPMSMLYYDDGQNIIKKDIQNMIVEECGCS
T3 sequence 2: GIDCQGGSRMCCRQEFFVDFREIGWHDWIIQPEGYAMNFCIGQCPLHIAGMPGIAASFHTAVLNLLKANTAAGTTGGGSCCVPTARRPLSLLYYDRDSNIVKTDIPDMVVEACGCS

T4: Activin AB (human, UniProt P08476 311-426; P09529 293-407)
T4 chain 1: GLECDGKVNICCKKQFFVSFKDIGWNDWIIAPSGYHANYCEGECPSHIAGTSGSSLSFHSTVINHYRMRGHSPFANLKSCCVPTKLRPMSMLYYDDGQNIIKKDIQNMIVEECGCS
T4 chain 2: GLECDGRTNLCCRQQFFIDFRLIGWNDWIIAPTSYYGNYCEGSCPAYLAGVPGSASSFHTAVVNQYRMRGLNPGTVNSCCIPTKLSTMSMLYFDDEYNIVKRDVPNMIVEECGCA

B1: H4H10440P2 (antibody, human IgG4, V domains shown)
VH: EVQLVESGGGVVQPGGSLRLSCAASTFTFDDFAMHWVRQAPGKGLEWVSLITGDGGSTYYADPVKGRFTISRDNSKNSLYLQMNSLRTEDTALYYCVKDWWIAARPDYYYYGMDVWGQGTTVTVSS
VL: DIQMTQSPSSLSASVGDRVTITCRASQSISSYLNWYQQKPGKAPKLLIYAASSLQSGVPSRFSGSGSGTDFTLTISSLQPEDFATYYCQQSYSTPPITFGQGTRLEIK
B2: H4H10429P (antibody, human IgG4, V domains shown)
VH: QVQLVESGGGVVQPGRSLRLSCVASGFTVSSYGIHWVRQAPGKGLEWVSVIWYDGRNKDYADSVKGRFTISRDNSKNTVYLEMKGLRAEDTALYYCARDKTGDFDSWGQGTLVTVSS
VL: DIQMTQSPSSLSASVGDRVTITCRASQNINSFLSWYQQKPGKAPKFLIYDASSIQSGAPSRFSGSGSGTDFTLTISSLQPEDFATYYCQQSYSSPFTFGQGTKLEIK
B3: H4H10430P (antibody, human IgG4, V domains shown)
VH: EVQLVESGGGLVQPGRSLRLSCKASGFAFDDFAMHWVRQAPGKGLEWVSGIVWNSGDIGYADSVKGRFTISRDNAKNSLYLQLNSLRTEDTALYFCVKDMVRGLMGFNYYGMDVWGQGTTVTVSS
VL: EIVLTQSPATLSLSPGERATLSCRASQTISTYLVWYRQRPGQAPSLLIYDASNRATDIPARFSGSGSGTDFTLTISSLEPEDFAVYYCQQRSNWPITFGQGTRLEIK
notes: also called mAb1
B4: H4H10446P2 (antibody, human IgG4, V domains shown)
VH: QVQLQESGPGLVKPSETLSLTCTVSGGSFSSHFWSWIRQPPGKGLEWIGYILYTGGTSFNPSLKSRVSMSVGTSKNQFSLKLSSVTAADTAVYYCARARSGITFTGIIVPGSFDIWGQGTMVTVSS
VL: not shown
notes: also called mAb2
B5: H4H10442P2 (antibody, human IgG4, V domains shown)
VH: QVQLQESGPGLVKPSETLSITCTVSGGSFSSHFWTWIRQPPGKGLEWIGYLHYSGGTSYNPSLKSRVIISVDTSKNQFSLKLNSVTAADTAVYYCARARSGITFGGLIVPGSFDIWGQGTMVTVSS
VL: not shown
B6: H4H10446P2 (antibody, human IgG4, V domains shown)
VH: QVQLQESGPGLVKPSETLSLTCTVSGGSFSSHFWSWIRQPPGKGLEWIGYILYTGGTSFNPSLKSRVSMSVGTSKNQFSLKLSSVTAADTAVYYCARARSGITFTGIIVPGSFDIWGQGTMVTVSS
VL: not shown
notes: also called mAb2

How the values were obtained:
[1] = molecular target: T1, Activin A (R&D Systems, #338-AC); test: SPR blocking: 5 nM Activin A + 30 nM binder over hActRIIB-hFc (Control 4) surface
Protocol: (§1) The binding signal (RU) was measured at 150 seconds after the start of the injection, and this signal was subtracted by the measured RU value for a negative control reference surface to determine the specific binding signal.

[2] = molecular target: T1, Activin A (R&D Systems, #338-AC); test: SPR blocking: 5 nM Activin A + 7.50 nM binder over hActRIIB-hFc (Control 4) surface
Protocol: as §1

[3] = molecular target: T1, Activin A (R&D Systems, #338-AC); test: SPR blocking: 5 nM Activin A + 0.00 nM binder over hActRIIB-hFc (Control 4) surface
Protocol: as §1

[4] = molecular target: T1, Activin A (R&D Systems, #338-AC); test: SPR blocking: 5 nM Activin A + 0.94 nM binder over hActRIIB-hFc (Control 4) surface
Protocol: as §1

[5] = molecular target: T1, Activin A (R&D Systems, #338-AC); test: SPR blocking: 5 nM Activin A + 60 nM binder over hActRIIB-hFc (Control 4) surface
Protocol: as §1

[6] = molecular target: T1, Activin A (R&D Systems, #338-AC); test: SPR blocking: 5 nM Activin A + 3.75 nM binder over hActRIIB-hFc (Control 4) surface
[7] = molecular target: T1, Activin A (R&D Systems, #338-AC); test: SPR blocking: 5 nM Activin A + 1.88 nM binder over hActRIIB-hFc (Control 4) surface
Protocol: as §1

[8] = molecular target: T1, Activin A (R&D Systems, #338-AC); test: SPR blocking: 5 nM Activin A + 15 nM binder over hActRIIB-hFc (Control 4) surface
Protocol: as §1

Activin A [9] = molecular target: T2, Activin A; test: SPR, 5 nM Activin A + 60 nM binder over Follistatin-288 surface
Protocol: as §1

Activin A [10] = molecular target: T2, Activin A; test: SPR, 5 nM Activin A + 30 nM binder over Follistatin-288 surface
Protocol: as §1

Activin A [11] = molecular target: T2, Activin A; test: SPR, 5 nM Activin A + 1.88 nM binder over hActRIIA-hFc surface
Protocol: as §1

Activin A [12] = molecular target: T2, Activin A; test: SPR, 5 nM Activin A + 0.94 nM binder over hActRIIA-hFc surface
Protocol: as §1

Activin A [13] = molecular target: T2, Activin A; test: SPR, 5 nM Activin A + 0.94 nM binder over Follistatin-288 surface
Protocol: as §1

Activin A [14] = molecular target: T2, Activin A; test: SPR, 5 nM Activin A + 60 nM binder over hActRIIA-hFc surface
Protocol: as §1

Activin A [15] = molecular target: T2, Activin A; test: SPR, 5 nM Activin A + 15 nM binder over hActRIIA-hFc surface
Protocol: as §1

Activin AC = molecular target: T3, Activin AC; test: cell-based or functional assay
Activin A [16] = molecular target: T2, Activin A; test: cell-based or functional assay
Activin AB = molecular target: T4, Activin AB; test: cell-based or functional assay
Activin A [17] = molecular target: T2, Activin A; test: SPR, 5 nM Activin A + 15 nM binder over Follistatin-288 surface
Protocol: as §1

Activin A [18] = molecular target: T2, Activin A; test: SPR, 5 nM Activin A + 7.5 nM binder over Follistatin-288 surface
Protocol: as §1

Activin A [19] = molecular target: T2, Activin A; test: SPR, 5 nM Activin A + 0 nM binder (no inhibitor) over Follistatin-288 surface
Protocol: as §1

Activin A [20] = molecular target: T2, Activin A; test: SPR, 5 nM Activin A + 3.75 nM binder over hActRIIA-hFc surface
Protocol: as §1

Activin A [21] = molecular target: T2, Activin A; test: SPR, 5 nM Activin A + 7.50 nM binder over hActRIIA-hFc surface
Protocol: as §1

Activin A [22] = molecular target: T2, Activin A; test: SPR, 5 nM Activin A + 30 nM binder over hActRIIA-hFc surface
Protocol: as §1

Activin A [23] = molecular target: T2, Activin A; test: SPR, 5 nM Activin A + 1.88 nM binder over Follistatin-288 surface
Protocol: as §1

Activin A [24] = molecular target: T2, Activin A; test: SPR, 5 nM Activin A + 3.75 nM binder over Follistatin-288 surface
Protocol: as §1

Activin A [25] = molecular target: T2, Activin A; test: SPR, 5 nM Activin A + 0.00 nM binder (no inhibitor) over hActRIIA-hFc surface
Protocol: as §1

Row | Binder | % bound RU w/ no inhibitor [1] | % bound RU w/ no inhibitor [2] | % bound RU w/ no inhibitor [3] | % bound RU w/ no inhibitor [4] | % bound RU w/ no inhibitor [5] | % bound RU w/ no inhibitor [6] | % bound RU w/ no inhibitor [7] | % bound RU w/ no inhibitor [8] | also measured
1 | B1 | 4% | 7% | 100% | 79% | 4% | 19% | 58% | 4% | 
2 | B2 | 2% | 2% | 100% | 87% | 3% | 19% | 67% | 2% | 
3 | B3 | 3% | 4% | 100% | 80% | 3% | 20% | 62% | 3% | 
4 | B4 |  |  |  |  |  |  |  |  | % bound RU w/ no inhibitor (Activin A [9]): 3%; % bound RU w/ no inhibitor (Activin A [10]): 3%; % bound RU w/ no inhibitor (Activin A [11]): 115%; % bound RU w/ no inhibitor (Activin A [12]): 111%; % bound RU w/ no inhibitor (Activin A [13]): 77%; % bound RU w/ no inhibitor (Activin A [14]): 118%; % bound RU w/ no inhibitor (Activin A [15]): 108%; IC50, inhibition of 4 nM Activin AC in A204/CAGAx12-Luc luciferase bioassay (Activin AC): 5.6 nM; IC50, inhibition of 100 pM Activin A in A204/CAGAx12-Luc luciferase bioassay (Activin A [16]): 4.7e-11 M; IC50, inhibition of 30 pM Activin AB in A204/CAGAx12-Luc luciferase bioassay (Activin AB): 8.2e-09 M; % bound RU w/ no inhibitor (Activin A [17]): 3%; % bound RU w/ no inhibitor (Activin A [18]): 3%; % bound RU w/ no inhibitor (Activin A [19]): 100%; % bound RU w/ no inhibitor (Activin A [20]): 85%; % bound RU w/ no inhibitor (Activin A [21]): 94%; % bound RU w/ no inhibitor (Activin A [22]): 98%; % bound RU w/ no inhibitor (Activin A [23]): 54%; % bound RU w/ no inhibitor (Activin A [24]): 7%; % bound RU w/ no inhibitor (Activin A [25]): 100%
5 | B5 | 122% | 103% | 100% | 110% | 124% | 88% | 106% | 115% | 
6 | B6 | 89% | 95% | 100% | 107% | 129% | 76% | 105% | 115% | 
